Laboratory results: patent US20230120736A1, “ANTI-CD98 ANTIBODIES AND ANTIBODY DRUG CONJUGATES” (AbbVie Inc., priority 2016, published 2023)
Residue numbers refer to the chain shown, from its start. Marks after values point to notes of the source that are not given here.

B1: huAb105: "heavy chain variable sequence of huAb105 is provided in SEQ ID NO: 111"; "light chain variable sequence ... in SEQ ID NO: 112" (antibody, V domains shown)
VH: EVQLVESGGGLVQPGGSLRLSCAASGFTFSDYTMAWVRQAPGKGLEWVATIIYSGRGTYYRDAVKGRFTISRDNAKNTLYLQMNSLRAEDTAVYYCARQSDHTYYYWGYFDYWGQGTMVTVSS
VL: DIVMTQTPLSLPVTPGEPASINCKSSQSLLFSGNQKNYLAWYLQKPGQSPQLLIYWASTRQSGVPDRFSGSGSGTDFTLKISRVEAEDVGIYYCQQYYDVPYTFGQGTKLEIK
B2: huAb107: "heavy chain variable sequence of huAb107 is provided in SEQ ID NO: 114"; "light chain variable sequence ... in SEQ ID NO: 112" (antibody, V domains shown)
VH: B1 VH with H102D
VL: B1 VL
B3: huAb109: "heavy chain variable sequence of huAb109 is provided in SEQ ID NO: 116"; "light chain variable sequence ... in SEQ ID NO: 117" (antibody, V domains shown)
VH: B1 VH with S54D, G55A, H102D
VL: B1 VL with D99S, V100S
B4: ChAb12-CZ (conjugate)
VH: EVQLVESGGGLVQPGRSLKLSCAASGFTFSDYAMAWVRQAPKKGLEWVASIIYDGRGTYYRDSVKGRFTISRDNAKSTLYLQMDSLRSEDTATYYCARQGDGTYYYWGSFDYWGQGVMVTVSS
VL: DIVMTQSPSSLAVSAGETVTINCKSSQSLLSSGNQKNYLAWYQQKPGQSPKLLIYWASTRQSGVPDRFIGSGSGTDFTLTISSVQAEDLAIYHCQQYYDTPYTFGAGTKLELK
B5: ChAb15-CZ (conjugate)
VH: B4 VH with A33T, S50T, G100S, S109Y
VL: B4 VL with S31F, S82R, H93Y, T100S

How the values were obtained:
human CD98 = molecular target: T1, human CD98 (Homo sapiens, UniProt P08195); assay: Binding of humanized antibodies to human CD98; settings: humanized framework engineered antibodies
T1 sequence (P08195 1-630 isoform P08195-1): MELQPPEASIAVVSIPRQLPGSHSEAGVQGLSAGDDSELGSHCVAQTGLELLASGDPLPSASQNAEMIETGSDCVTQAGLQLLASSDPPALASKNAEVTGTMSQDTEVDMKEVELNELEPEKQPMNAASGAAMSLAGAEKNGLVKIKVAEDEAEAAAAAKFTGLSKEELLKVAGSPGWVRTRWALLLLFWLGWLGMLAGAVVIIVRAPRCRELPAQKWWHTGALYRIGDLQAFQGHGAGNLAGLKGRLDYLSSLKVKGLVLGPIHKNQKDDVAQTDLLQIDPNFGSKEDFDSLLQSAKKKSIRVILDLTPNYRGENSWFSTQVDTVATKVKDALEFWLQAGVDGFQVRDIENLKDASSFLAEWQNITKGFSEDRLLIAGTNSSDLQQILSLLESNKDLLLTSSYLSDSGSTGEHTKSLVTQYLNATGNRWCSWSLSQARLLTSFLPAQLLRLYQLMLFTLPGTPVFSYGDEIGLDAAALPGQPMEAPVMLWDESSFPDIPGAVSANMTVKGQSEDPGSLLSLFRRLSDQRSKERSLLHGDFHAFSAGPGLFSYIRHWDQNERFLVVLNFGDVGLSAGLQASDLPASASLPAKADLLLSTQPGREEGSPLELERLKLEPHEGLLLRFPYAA

[1] = system: cynomolgus monkey CD98 ECD; assay: Biacore surface plasmon resonance binding kinetics (anti-Fc capture); settings: cyCD98 ECD
Protocol: (§1) The binding kinetics of these purified mouse and rat monoclonal anti-CD98 antibodies for purified recombinant CD98 protein (extracellular domain, ECD) were determined by surface plasmon resonance-based measurements made on Biacore T100/T200 instruments (GE Healthcare, Piscataway, N.J.) at 25° C. using an anti-Fc capture assay approach. Binding kinetic measurements were made in the assay buffer HBS-EP+: 10 mM Hepes, pH 7.4, 150 mM NaCl, 3 mM EDTA, 0.05% Tween 20). For example, approximately 8000 RU of anti-Fc (species specific) polyclonal antibody (Thermo Fisher Scientific Inc., Rockford, Ill.) diluted in 10 mM sodium acetate (pH 4.5) was directly immobilized across a CM5 research grade biosensor chip using a standard amine coupling kit according to manufacturer's instructions and procedures at 25 μg/ml. Unreacted moieties on the biosensor surface were blocked with ethanolamine. The test antibody to be captured as a ligand was diluted in running buffer to ˜0.5 μg/mL and injected over anti-Fc surface at a flow rate of 10 μL/min. CD98 binding and dissociation were observed under a continuous flow rate of 80 μL/min. Human and cynomolgus monkey CD98 ECDs, both with a C-terminal His-tag, are used for this study (Table 3). After each cycle the anti-Fc capture surface was regenerated using 10 mM Glycine-HCl, pH 1.5. During the assay, all measurements were referenced against the capture surface alone (i.e., with no captured test antibody) and buffer-only injections (no antigen) were used for double referencing. For kinetic analysis, rate equations derived from the 1:1 Langmuir binding model were fitted simultaneously, globally and with mass transfer term included to multiple referenced antigen binding curves using Biacore T100/T200 Evaluation software.
(§2) The in vitro binding activities of the recombinant anti-CD98 chimeric mAbs were measured against both recombinant CD98 extracellular domain proteins (ECDs) and CD98-expressing cells. Briefly, binding kinetics of anti-CD98 chimera mAbs for human and cynomolgus CD98 ECDs were determined by surface plasmon resonance-based measurements as described in Example 4. Table 10 reported the association and dissociation rate constants for CD98 binding, ka (M^−1 s^−1) and kd (s^−1), and the equilibrium dissociation constant KD (M) of the interaction between antibodies and the target antigen. Binding of anti-CD98 chimera mAbs for CD98 on cell surface was evaluated by flow cytometry against CHO-K1 cell line stably transfected to express human CD98 and 3T12 cell line stably transfected to express cynomolgus monkey CD98.
(§3) The binding kinetics of the recombinant anti-CD98 chimeric antibodies for purified recombinant CD98 protein (extracellular domain, ECD) were determined by surface plasmon resonance-based measurements, as described in the Example 4.

human CD98 ECD = molecular target: T2, human CD98 ECD (Homo sapiens, UniProt P08195); assay: as above; settings: huCD98 ECD
T2 construct: Human CD98 ECD with C-terminal His-tag
T2 sequence (P08195 with tags, fused parts or gaps): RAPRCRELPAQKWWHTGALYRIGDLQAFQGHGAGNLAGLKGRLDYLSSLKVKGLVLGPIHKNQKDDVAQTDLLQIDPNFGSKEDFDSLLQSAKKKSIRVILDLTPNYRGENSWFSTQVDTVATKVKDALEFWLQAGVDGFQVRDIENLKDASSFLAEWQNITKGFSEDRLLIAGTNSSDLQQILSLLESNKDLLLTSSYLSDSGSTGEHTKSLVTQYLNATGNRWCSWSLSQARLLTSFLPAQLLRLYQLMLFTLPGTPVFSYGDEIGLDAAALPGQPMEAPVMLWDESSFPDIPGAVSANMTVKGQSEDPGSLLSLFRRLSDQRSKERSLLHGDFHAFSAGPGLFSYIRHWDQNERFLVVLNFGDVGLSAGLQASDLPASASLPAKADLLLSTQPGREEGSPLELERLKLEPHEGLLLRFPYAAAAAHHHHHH
Protocol: as §1, §2, §3

[2] = Conjugation of anti-CD98 mAbs with Bcl-xL inhibitor synthons (precipitation, DAR, recovery, aggregation); settings: Method E
Protocol: Method A. A solution of BOND-BREAKER tris(2-carboxyethyl)phosphine (TCEP) solution (10 mM, 0.017 mL) was added to a solution of antibody (10 mg/mL, […]) preheated to 37° C. The reaction mixture was kept at 37° C. for 1 hour. The solution of reduced antibody was added to a solution of synthon (3.3 mM, 0.160 mL in DMSO) and gently mixed for 30 minutes. The reaction solution was loaded onto a desalting column (PD10, washed with DPBS 3x before use), followed by DPBS (1.6 mL) and eluted with additional DPBS (3 mL). The purified ADC solution was filtered through a 0.2 micron, low protein-binding 13 mm syringe-filter and stored at 4° C.
Method E. A solution of BOND-BREAKER tris(2-carboxyethyl)phosphine (TCEP) solution (10 mM, 0.017 mL) was added to the solution of antibody (10 mg/mL, 1 mL) at room temperature. The reaction mixture was heated to 37° C. for 75 minutes. The solution of reduced antibody cooled to room temperature and was added to a solution of synthon (10 mM, 0.040 mL in DMSO) followed by addition of boric buffer (0.1 mL, 1M, pH 8). The reaction solution was let to stand for 3 days at room temperature, loaded onto a desalting column (PD10, washed with DPBS 3×5 mL before use), followed by DPBS (1.6 mL) and eluted with additional DPBS (3 mL). The purified ADC solution was filtered through a 0.2 micron, low protein-binding 13 mm syringe-filter and stored at 4° C.

[3] = system: EBC-1 (human lung squamous cell carcinoma) xenograft; assay: EBC-1 xenograft tumor growth inhibition; type: in vivo, mouse; settings: SCID-bg mice; for Growth Inhibition TGImax / Response Frequency CR / Response Frequency PR / Tumor growth delay (TGD): 10 mg/kg IP QDx1; for Response Frequency OR: 10 mg/kg IP QDx1, sum of CR and PR
Protocol: To refer to efficacy of therapeutic agents, parameters of amplitude (TGImax), durability (TGD) and response frequency (CR, PR, OR) of therapeutic response are used. […] In the tables, to refer to efficacy, parameters of amplitude (TGImax) and durability (TGD) of therapeutic response are used. TGImax is the maximum tumor growth inhibition during the experiment. Tumor growth inhibition is calculated by 100*(1−Tv/Cv) where Tv and Cv are the mean tumor volumes of the treated and control groups, respectively. TGD or tumor growth delay is the extended time of a treated tumor needed to reach a volume of 1 cm^3 relative to the control group. TGD is calculated by 100*(Tt/Ct−1) where Tt and Ct are the median time periods to reach 1 cm^3 of the treated and control groups, respectively. Distribution of the response amplitude in a specific group is given by the frequency of complete responders (CR), partial responders (PR), and overall responders (OR). CR is the percentage of mice within a group with a tumor burden of 25 mm^3 for at least three measurements. PR is the percentage of mice within a group with a tumor burden larger than 25 mm^3 but less than one-half of the volume at onset of treatment for at least three measurements. OR is the sum of CR and PR.
EBC-1 was obtained from the Japanese Collection of Research Bioresources Cell Bank (JCRB, Osaka, Japan) and were cultured using MEM culture media with 10% FBS. To generate xenografts, 5×10^6 EBC-1 viable cells were inoculated subcutaneously into the right flank of immune deficient female SCID-bg mice (Charles River Laboratories, Wilmington, Mass.). The injection volume was 0.2 mL and the inoculum was composed of 1:1 mixture of S-MEM and Matrigel. Tumors were size matched at approximately 200 mm^3. Antibodies and conjugates were formulated in phosphate buffered saline, pH 7.2 and injected intraperitoneally. […] Therapy began within 24 hours after size matching of the tumors. Mice weighed approximately 21-22 g at the onset of therapy. Tumor volume was estimated two to three times weekly. Measurements of the length (L) and width (W) of the tumor were taken via electronic caliper and the volume was calculated according to the following equation: V=L×W^2/2. Mice were euthanized when tumor volume reached 3,000 mm^3 or skin ulcerations occurred. Eight mice were housed per cage. Food and water were available ad libitum. Mice were acclimated to the animal facilities for a period of at least one week prior to commencement of experiments. Animals were tested in the light phase of a 12-hour light: 12-hour dark schedule (lights on at 06:00 hours). Anti-CD98 conjugates (10 mg/kg) were administered as a single dose (QDx1) intraperitoneally. A human IgG control antibody (AB095, a human IgG1 antibody recognizing tetanus toxoid See Larrick et al., 1992, Immunological Reviews 69-85) was used as a negative control agent.
To refer to efficacy of therapeutic agents, parameters of amplitude (TGImax), durability (TGD) and response frequency (CR, PR, OR) of therapeutic response are used as described in the Example 6.

cynomolgus monkey CD98 ECD, sequence (as listed by the source): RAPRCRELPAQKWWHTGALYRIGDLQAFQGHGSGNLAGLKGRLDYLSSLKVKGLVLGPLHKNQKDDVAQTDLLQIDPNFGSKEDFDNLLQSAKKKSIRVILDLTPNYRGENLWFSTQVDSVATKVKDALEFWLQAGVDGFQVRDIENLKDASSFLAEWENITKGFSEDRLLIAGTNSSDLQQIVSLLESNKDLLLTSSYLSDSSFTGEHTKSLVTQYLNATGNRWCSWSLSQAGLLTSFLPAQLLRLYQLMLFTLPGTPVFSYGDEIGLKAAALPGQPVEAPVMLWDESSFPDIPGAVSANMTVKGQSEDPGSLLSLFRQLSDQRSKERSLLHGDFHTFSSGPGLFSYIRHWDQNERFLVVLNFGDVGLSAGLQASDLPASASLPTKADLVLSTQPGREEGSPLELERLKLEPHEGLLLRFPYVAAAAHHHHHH

Molecule | binding to human CD98 (human CD98) | ka [1] [M⁻¹ s⁻¹] | kd [1] [s⁻¹] | ka (human CD98 ECD) [M⁻¹ s⁻¹] | kd (human CD98 ECD) [s⁻¹] | DAR by MS ([2]; conjugation with synthon CZ) | % Aggregates by SEC ([2]; conjugation with synthon TX) [%] | DAR by MS ([2]; conjugation with synthon TX) | % Aggregates by SEC ([2]; conjugation with synthon CZ) [%] | Growth Inhibition TGImax [3] | Response Frequency CR [3] [%] | Response Frequency PR [3] [%] | Tumor growth delay (TGD) [3] | Response Frequency OR [3] [%]
B1 | maintained binding | 38000 | 5.3e-05 | 140000 | 2.4e-05 | 1.2 | 0.6 | 1.7 | – | – | – | – | – | –
B2 | maintained binding | 33000 | 8.7e-05 | 110000 | 3.8e-05 | 2.2 | 1.5 | 3.1 | 1.9 | – | – | – | – | –
B3 | maintained binding | 26000 | 0.00031 | 160000 | 0.00017 | 2.1 | 1.0 | 2.9 | 2.5 | – | – | – | – | –
B4 | – | – | – | – | – | – | – | – | – | 76* % | 0 | 25 | 74* % | 25
B5 | – | – | – | – | – | – | – | – | – | 70* % | 0 | 0 | 74* % | 0
